Columns and labels:
MS2 coat protein [1] = experiment: apparent KD of MS2 coat protein, switch OFF state (with FMN for OFF switches, without FMN for ON switches); designed switch direction (-1 OFF switch, 1 ON switch): -1; higher = weaker reporter binding; conditions: FMN input: 0 or 200 uM; Eterna round: R93 (includes R88 designs)
In short: (§1)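 Designed RNA switches, transcribed on-chip from Illumina sequencing clusters, were titrated with SNAP-549-labelled MS2 coat protein from 0.7 or 1.5 nM to 3 µM in twofold steps. The solution was 100 mM Tris-HCl pH 7.5, 80 mM KCl, 4 mM MgCl2, with constant ligand or without it. Apparent KD is the median over each design's normalised cluster binding-curve fits.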

MS2 coat protein [2] = experiment: apparent KD of MS2 coat protein, switch ON state; designed switch direction (-1 OFF switch, 1 ON switch): -1; higher = weaker reporter binding; conditions: FMN input: 0 or 200 uM; Eterna round: R93 (includes R88 designs)
In short: as §1

| Sequence | apparent KD of MS2 coat protein (MS2 coat protein [1]) | apparent KD of MS2 coat protein (MS2 coat protein [2]) |
| --- | --- | --- |
| AAAAACUCAGGAUAUAUUAUGGGACAAUGAAGGAAGAUAAAACAUGAGGAUCACCCAUGUAGAAGGGAGAAAAA [JR_Exclusion2_Sub2] | 62.8 nM | 57.7 nM |
| AAAAACUGAGGAUAUACAUGAGGAUCACCCAUGUGAAAGAAAGAAAAAAGAAAAGAAAGUAGAAGGCAGAAAAA [Ruby 76] | 29.5 nM | 34 nM |
| AAAAACUGAGGAUAUACGAAAAAAAAAAAAAAAAAAAAAAAACAUGAGGAUCACCCAUGUAGAAGGCAGAAAAA [exclusion 02 - A] | 57.5 nM | 41.4 nM |
| AAAAACUGAGGAUAUACUUUGGGAAAAGAAAAGAUGAUGUUACAUGAGGAUCACCCAUGUAGAAGGCAGAAAAA [Mat - Exclusion 2 - Mod - D154] | 43 nM | 25.4 nM |
| AAAAAGAUAGGAUAUACGAACAUGUCAAAAGACGUGAAGGGACAUGAGGAUCACCCAUGUAGAAGGGUUAAAAA [JL Wide Open 38] | 66.6 nM | 155 nM |
| AAAAAGAUAGGAUAUACGUACAUGUCGAAAGACGUGAAGGGACAUGAGGAUCACCCAUGUAGAAGGGUUAAAAA [Mat - Exclusion 2 - JL mod - D91] | 52.4 nM | 185 nM |
| AAAAAGCGAGGAUAUACAUAGCUAAGACAAAUAAGCAAAAAACAUGAGGAUCACCCAUGUAGAAGGCGCAAAAA [Exclusion2-01] | 15.4 nM | 19.6 nM |
| AAAAAGCGAGGAUAUACAUAGCUAAGACAAAUAAGCAAGGGACAUGAGGAUCACCCAUGUAGAAGGCGCAAAAA [Exclusion 2-01... 60% 1] | 97.3 nM | 34.7 nM |
| AAAAAGCGAGGAUAUACAUGAGGAUCACCCAUGUCAAAAGAAUAUAAAGAAAUAGGAAGUAGAAGGCGCAAAAA [Ex 3 #3] | 56.4 nM | 67.1 nM |
| AAAAAGCGAGGAUAUACAUGAGGAUCACCCAUGUGAAAAAAAAAAAAAAAAAAAAAAAGUAGAAGGCGCAAAAA [GC super strong! + G boost] | 39.2 nM | 46.4 nM |
| AAAAAGCGAGGAUAUACAUGAGGAUCACCCAUGUGAAAAAAAAAAAAAAAAAAAAAAAGUAGAAGGCGCAAAAA [H20 RNA] | 39.2 nM | 46.4 nM |
| AAAAAGCGAGGAUAUACGAGUCAAAGAAAAGACAAAAAGGGACAUGAGGAUCACCCAUGUAGAAGGCGCAAAAA [Fiskers exclusion D2 62% 3] | 47.1 nM | 30.5 nM |
| AAAAAGGAAGGAUAUACAUGAGGAUCACCCAUGUAAAAAAAAAAAAAGGGAAAAAAAAGUAGAAGGUCCAAAAA [Montuemsaf Djedankhre] | 40.9 nM | 33 nM |
| AAAAAGGAAGGAUAUACGAACAUGUCAAAAGACGUGAAGGGACAUGAGGAUCACCCAUGUAGAAGGUCCAAAAA [JL Half Open 23] | 99.6 nM | 83.4 nM |
| AAAAAGGAAGGAUAUACGAACAUGUCAAAAGACGUGAAGGGACAUGAGGAUCACCCAUGUAGAAGGUUCAAAAA [JL Half Open 24] | 18.5 nM | 38.7 nM |
| AAAAAGGCAGGAUAUACAAAAAAAAAAAAAAAAAAGGAGGGACAUGAGGAUCACCCAUGUAGAAGGGCCAAAAA [Kai Theodor Erikson] | 121 nM | 97.4 nM |
| AAAAAGGCAGGAUAUACAUGAGGAUCACCCAUGUAAAGAAAAGAAAGAUCCAAAGAAAGUAGAAGGGCCAAAAA [Ex3 sub 3] | 170 nM | 48.8 nM |

Reference: the supplement of paper PMC9170038
